Data published in patent publication US20250026849A1 (ARCELLX, published 2025).

B1: D domain SEQ ID NO: 949 (designed binder)
chain: MGSWTLFKWDLAFIKWQLEALGGSEAELAWFEYEIAAFEDSLQNYKGKGNPEVEALRKEAAAIRDELQAYRHN
B2: D domain SEQ ID NO: 950 (designed binder)
chain: MGSWILFKEDLAFIKWQLEALGGSEAELAWFETTIANFESDLQKYKGKGNPEVEALRKEAAAIRDELQAYRHN
B3: D domain SEQ ID NO: 948 (designed binder)
chain: MGSWMYFKSHLAWIKWELEALGGSEAELAFFEDNIAQFEYWLQLYKGKGNPEVEALRKEAAAIRDELQAYRHN
B4: D domain SEQ ID NO: 951 (designed binder)
chain: MGSWYFFKSRLAYIKVYLEALGGSEAELAGFEWEIAHFEEWLQRYKGKGNPEVEALRKEAAAIRDELQAYRHN
B5: D domain SEQ ID NO: 977 (designed binder)
chain: MGSWIAFKDHLAIIKQRLEALGGSEAELARFEFEIAWFEWMLQYYKGKGNPEVEALRKEAAAIRDELQAYRHN
B6: D domain SEQ ID NO: 947 (designed binder)
chain: MGSWVYFKAHLAFIKWELEALGGSEAELANFESTIAEFEKYLQVYKGKGNPEVEALRKEAAAIRDELQAYRHN
B7: D domain SEQ ID NO: 979 (designed binder)
chain: MGSWMVFKQDLAEIKANLEALGGSEAELADFEFAIAWFEYELQWYKGKGNPEVEALRKEAAAIRDELQAYRHN
B8: D domain SEQ ID NO: 981 (designed binder)
chain: MGSWHSFKQDLAYIKYLLEALGGSEAELAQFEELIAFFEYYLQTYKGKGNPEVEALRKEAAAIRDELQAYRHN
B9: D domain SEQ ID NO: 982 (designed binder)
chain: MGSWVVFKSSLAQIKILLEALGGSEAELAIFEVKIAHFEQELQEYKGKGNPEVEALRKEAAAIRDELQAYRHN
B10: D domain SEQ ID NO: 983 (designed binder)
chain: MGSWDQFKNSLASIKRVLEALGGSEAELAIFEVKIAHFEHFLQQYKGKGNPEVEALRKEAAAIRDELQAYRHN
B11: D domain SEQ ID NO: 978 (designed binder)
chain: MGSWIHFKNDLAVIKDELEALGGSEAELARFEIMIAWFEDALQWYKGKGNPEVEALRKEAAAIRDELQAYRHN
B12: D domain SEQ ID NO: 957 (designed binder)
chain: MGSWWVFKKTLAEIKWTLEALGGSEAELAYFEAEIAFFEFILQQYKGKGNPEVEALRKEAAAIRDELQAYRHN
B13: D domain SEQ ID NO: 953 (designed binder)
chain: MGSWYIFKQELASIKLSLEALGGSEAELAHFEAEIAWFEWWLQWYKGKGNPEVEALRKEAAAIRDELQAYRHN
B14: D domain SEQ ID NO: 954 (designed binder)
chain: MGSWVRFKTELAYIKESLEALGGSEAELAMFESEIAIFEHSLQTYKGKGNPEVEALRKEAAAIRDELQAYRHN
B15: D domain SEQ ID NO: 946 (designed binder)
chain: MGSWYLFKNELAWIKWRLEALGGSEAELADFEMVIAMFEDHLQEYKGKGNPEVEALRKEAAAIRDELQAYRHN
B16: D domain SEQ ID NO: 980 (designed binder)
chain: MGSWKNFKLELALIKSKLEALGGSEAELAQFEADIAFFEWSLQWYKGKGNPEVEALRKEAAAIRDELQAYRHN
B17: D domain SEQ ID NO: 942 (designed binder)
chain: MGSWLLFKSELAWIKWYLEALGGSEAELAEFEWNIAEFEKNLQKYKGKGNPEVEALRKEAAAIRDELQAYRHN
B18: D domain SEQ ID NO: 945 (designed binder)
chain: MGSWKLFKYELAWIKWRLEALGGSEAELADFEASIAQFEKYLQTYKGKGNPEVEALRKEAAAIRDELQAYRHN
B19: D domain SEQ ID NO: 943 (designed binder)
chain: MGSWLLFKSDLAWIKWRLEALGGSEAELAEFEESIAMFEHWLQEYKGKGNPEVEALRKEAAAIRDELQAYRHN
B20: D domain SEQ ID NO: 952 (designed binder)
chain: MGSWYIFKSELAWIKWYLEALGGSEAELANFEVEIATFETWLQGYKGKGNPEVEALRKEAAAIRDELQAYRHN
B21: D domain SEQ ID NO: 944 (designed binder)
chain: MGSWLYFKSDLAWIKWRLEALGGSEAELADFEEAIAEFEQALQIYKGKGNPEVEALRKEAAAIRDELQAYRHN
B22: D domain SEQ ID NO: 956 (designed binder)
chain: MGSWYWFKYELAEIKWHLEALGGSEAELAHFEHSIAVFESQLQQYKGKGNPEVEALRKEAAAIRDELQAYRHN
B23: D domain SEQ ID NO: 955 (designed binder)
chain: MGSWYLFKTELAAIKYRLEALGGSEAELASFEYEIAWFEHILQFYKGKGNPEVEALRKEAAAIRDELQAYRHN
B24: D domain SEQ ID NO: 984 (designed binder)
chain: MGSWNNFKSSLASIKQVLEALGGSEAELAVFELQIAHFERELQYYKGKGNPEVEALRKEAAAIRDELQAYRHN
B25: D domain SEQ ID NO: 965 (designed binder)
chain: MGSWTHFKEDLAHIKDRLEALGGSEAELAAFELDIAWFEFMLQYYKGKGNPEVEALRKEAAAIRDELQAYRHN
B26: D domain SEQ ID NO: 968 (designed binder)
chain: MGSWFTFKDDLAQIKNRLEALGGSEAELANFEMSIAWFEFMLQYYKGKGNPEVEALRKEAAAIRDELQAYRHN
B27: D domain SEQ ID NO: 972 (designed binder)
chain: MGSWSIFKQDLADIKDSLEALGGSEAELAMFEMDIAWFEHTLQYYKGKGNPEVEALRKEAAAIRDELQAYRHN
B28: D domain SEQ ID NO: 975 (designed binder)
chain: MGSWSVFKDDLAQIKDRLEALGGSEAELAQFELDIAWFEYVLQFYKGKGNPEVEALRKEAAAIRDELQAYRHN
B29: D domain SEQ ID NO: 960 (designed binder)
chain: MGSWIIFKTDLARIKNYLEALGGSEAELATFERDIAWFEFMLQIYKGKGNPEVEALRKEAAAIRDELQAYRHN
B30: D domain SEQ ID NO: 967 (designed binder)
chain: MGSWYTFKGSLAEIKNRLEALGGSEAELAMFESDIAWFEFMLQFYKGKGNPEVEALRKEAAAIRDELQAYRHN
B31: D domain SEQ ID NO: 973 (designed binder)
chain: MGSWEIFKDDLASIKKVLEALGGSEAELALFESDIAWFELMLQYYKGKGNPEVEALRKEAAAIRDELQAYRHN
B32: D domain SEQ ID NO: 959 (designed binder)
chain: MGSWVYFKHRLAEIKDQLEALGGSEAELAEFETDIAWFEWMLQYYKGKGNPEVEALRKEAAAIRDELQAYRHN
B33: D domain SEQ ID NO: 971 (designed binder)
chain: MGSWSYFKEDLANIKSSLEALGGSEAELAWFESSIAWFEHTLQYYKGKGNPEVEALRKEAAAIRDELQAYRHN
B34: D domain SEQ ID NO: 970 (designed binder)
chain: MGSWVEFKRDLANIKQRLEALGGSEAELAQFEMQIAWFEHTLQYYKGKGNPEVEALRKEAAAIRDELQAYRHN
B35: D domain SEQ ID NO: 958 (designed binder)
chain: MGSWVYFKDHLAEIKSQLEALGGSEAELALFEYDIAWFEFILQYYKGKGNPEVEALRKEAAAIRDELQAYRHN
B36: D domain SEQ ID NO: 974 (designed binder)
chain: MGSWSIFKDDLAVIKERLEALGGSEAELAHFEQDIAWFEHLLQYYKGKGNPEVEALRKEAAAIRDELQAYRHN
B37: D domain SEQ ID NO: 964 (designed binder)
chain: MGSWFVFKEDLAGIKFILEALGGSEAELAMFETDIAWFEYMLQYYKGKGNPEVEALRKEAAAIRDELQAYRHN
B38: D domain SEQ ID NO: 963 (designed binder)
chain: MGSWLAFKEDLAHIKSILEALGGSEAELAEFEHDIAWFEYMLQYYKGKGNPEVEALRKEAAAIRDELQAYRHN
B39: D domain SEQ ID NO: 976 (designed binder)
chain: MGSWAVFKDSLAHIKDVLEALGGSEAELALFEMDIAWFEYVLQDYKGKGNPEVEALRKEAAAIRDELQAYRHN
B40: D domain SEQ ID NO: 966 (designed binder)
chain: MGSWYYFKERLAAIKDRLEALGGSEAELAIFEADIAWFEFMLQYYKGKGNPEVEALRKEAAAIRDELQAYRHN
B41: D domain SEQ ID NO: 962 (designed binder)
chain: MGSWQIFKQDLAAIKDYLEALGGSEAELAIFEFDIAWFEHMLQWYKGKGNPEVEALRKEAAAIRDELQAYRHN
B42: D domain SEQ ID NO: 969 (designed binder)
chain: MGSWVLFKQDLAMIKQRLEALGGSEAELAMFEYDIAWFEHMLQYYKGKGNPEVEALRKEAAAIRDELQAYRHN
B43: D domain SEQ ID NO: 961 (designed binder)
chain: MGSWMHFKQDLAEIKGYLEALGGSEAELAIFEMDIAWFEYMLQYYKGKGNPEVEALRKEAAAIRDELQAYRHN

target: T1, P26 (human, UniProt P02771 381-609, limits assumed); experiment: ELISA, format not described; parameters: unit not given here
T1 construct: also called AFP p26
T1 sequence: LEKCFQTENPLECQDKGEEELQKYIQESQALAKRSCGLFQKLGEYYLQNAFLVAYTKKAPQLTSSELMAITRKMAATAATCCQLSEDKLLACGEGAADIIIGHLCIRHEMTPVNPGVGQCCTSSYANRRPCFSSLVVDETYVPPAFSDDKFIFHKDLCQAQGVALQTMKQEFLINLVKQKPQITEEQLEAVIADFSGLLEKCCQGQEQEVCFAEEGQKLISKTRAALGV

| Binder | ELISA_avg |
| --- | --- |
| B1 | 12.1 |
| B2 | 23.3 |
| B3 | 19.8 |
| B4 | 30.1 |
| B5 | 29.9 |
| B6 | 20.8 |
| B7 | 17.8 |
| B8 | 25.6 |
| B9 | 8.6 |
| B10 | 15.6 |
| B11 | 17.9 |
| B12 | 18.6 |
| B13 | 19.4 |
| B14 | 20.5 |
| B15 | 31.1 |
| B16 | 20.6 |
| B17 | 25.7 |
| B18 | 23.4 |
| B19 | 33.3 |
| B20 | 29.6 |
| B21 | 21.2 |
| B22 | 21.5 |

| Binder | ELISA_avg |
| --- | --- |
| B23 | 20.1 |
| B24 | 24.1 |
| B25 | 30.4 |
| B26 | 30.8 |
| B27 | 16.6 |
| B28 | 30.3 |
| B29 | 16.7 |
| B30 | 32.3 |
| B31 | 27.9 |
| B32 | 11.1 |
| B33 | 11.6 |
| B34 | 30.4 |
| B35 | 22.1 |
| B36 | 25.6 |
| B37 | 14.2 |
| B38 | 18.6 |
| B39 | 24.1 |
| B40 | 31.5 |
| B41 | 17.4 |
| B42 | 29.7 |
| B43 | 18.9 |
